Test [1] concerns the target T1, Human CB1 receptor (cannabinoid receptor-1), wild type (human, UniProt P21554 1-472). Kind of test: cell-based or functional assay.
For test [2], the target named is T1, Human CB1 receptor (cannabinoid …). Put plainly: method not given.
The target in test [3] is T2, Mouse CB1 receptor, wild type (mouse, UniProt P47746 1-473).
T2 construct: also called mCB1; V5-mCB1
Put plainly: FACS on transfected cells.

T1 sequence (P21554 whole entry): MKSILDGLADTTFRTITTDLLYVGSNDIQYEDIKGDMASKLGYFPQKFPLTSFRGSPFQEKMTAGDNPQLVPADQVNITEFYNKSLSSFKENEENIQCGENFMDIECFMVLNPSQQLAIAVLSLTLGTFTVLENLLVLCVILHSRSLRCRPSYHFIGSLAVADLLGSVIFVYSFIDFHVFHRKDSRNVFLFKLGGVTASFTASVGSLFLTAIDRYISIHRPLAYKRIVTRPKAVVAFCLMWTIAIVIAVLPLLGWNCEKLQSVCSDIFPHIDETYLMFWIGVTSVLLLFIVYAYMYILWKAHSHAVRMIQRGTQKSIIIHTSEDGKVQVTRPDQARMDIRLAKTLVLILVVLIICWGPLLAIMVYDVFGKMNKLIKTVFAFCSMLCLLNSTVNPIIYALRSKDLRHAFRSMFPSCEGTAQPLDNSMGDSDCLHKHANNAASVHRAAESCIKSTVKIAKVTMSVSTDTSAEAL
T2 sequence (P47746 whole entry): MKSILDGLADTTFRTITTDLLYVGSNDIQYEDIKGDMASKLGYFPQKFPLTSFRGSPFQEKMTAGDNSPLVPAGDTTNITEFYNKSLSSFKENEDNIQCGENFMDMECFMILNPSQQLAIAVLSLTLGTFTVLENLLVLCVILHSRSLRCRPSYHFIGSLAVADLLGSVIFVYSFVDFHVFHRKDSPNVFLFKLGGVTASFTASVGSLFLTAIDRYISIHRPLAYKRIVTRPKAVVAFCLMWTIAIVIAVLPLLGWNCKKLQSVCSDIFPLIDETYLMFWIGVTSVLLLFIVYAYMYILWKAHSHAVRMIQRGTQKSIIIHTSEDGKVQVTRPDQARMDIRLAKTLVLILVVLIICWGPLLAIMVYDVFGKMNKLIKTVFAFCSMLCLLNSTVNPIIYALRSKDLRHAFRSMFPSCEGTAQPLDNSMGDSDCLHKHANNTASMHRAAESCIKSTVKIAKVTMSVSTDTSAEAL

B1: CB1 antibody 10D10 (antibody, human IgG2, kappa, V domains shown)
VH: QVQLQESGPGLVKPSQTLSLTCTVSGGSIRRGGDYWSWIRQHPGKGLEWIGYIYYSGSTNYNPSLKSRATISVDTSKNQFSLKLSSVTAADTAVYYCARDYDILTGYSYYYYGMDVWGQGTTVTVSS
VL: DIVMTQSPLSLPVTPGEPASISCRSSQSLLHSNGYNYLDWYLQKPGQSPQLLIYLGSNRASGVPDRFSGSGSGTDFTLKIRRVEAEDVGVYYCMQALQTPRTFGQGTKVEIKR
notes: Xenomouse (human) antibody; also called wild-type 10D10; WT HC / WT LC
Take B1: in test [1], the “IC50, GTP-Eu assay against anandamide” value came to 10.1 nM. The molecule also returned a Kd in test [2] of less than 200 nM. The binding result in test [3] is given as “no binding”.

The values are drawn from US20160145333A1 (Amgen, published 2016).
